What was measured:
[1] = target: BCL2 peptide Ac-…-amide (amino acids 41-54 of human BCL2 with linkers) (human); assay: imaging mass cytometry; peptide 2.50E-05 M in core; Ab 10 ug/ml
[2] = target: Bovine serum albumin (BSA; Ultra Pure) (bovine) (UniProt P02769); assay: imaging mass cytometry; no peptide (background core); Ab 5 ug/ml
[3] = target: BCL2 peptide Ac-…-amide (amino acids 41-54 of human BCL2 with linkers) (human); assay: imaging mass cytometry; peptide 2.50E-07 M in core; Ab 5 ug/ml
[4] = target: BCL2 peptide Ac-…-amide (amino acids 41-54 of human BCL2 with linkers) (human); assay: imaging mass cytometry; peptide 2.50E-06 M in core
[5] = target: BCL2 peptide Ac-…-amide (amino acids 41-54 of human BCL2 with linkers) (human); assay: imaging mass cytometry; peptide 2.50E-05 M in core (second core); Ab 10 ug/ml
[6] = target: BCL2 peptide Ac-…-amide (amino acids 41-54 of human BCL2 with linkers) (human); assay: imaging mass cytometry; peptide 2.50E-04 M in core; Ab 5 ug/ml
[7] = target: BCL2 peptide Ac-…-amide (amino acids 41-54 of human BCL2 with linkers) (human); assay: imaging mass cytometry; peptide 2.50E-08 M in core
[8] = target: BCL2 peptide Ac-…-amide (amino acids 41-54 of human BCL2 with linkers) (human); assay: imaging mass cytometry; peptide 2.50E-05 M in core
[9] = target: Bovine serum albumin (BSA; Ultra Pure) (bovine) (UniProt P02769); assay: imaging mass cytometry; no peptide (second background core); Ab 1 ug/ml
[10] = target: BCL2 peptide Ac-…-amide (amino acids 41-54 of human BCL2 with linkers) (human); assay: imaging mass cytometry; peptide 2.50E-06 M in core (second core); Ab 1 ug/ml
[11] = target: BCL2 peptide Ac-…-amide (amino acids 41-54 of human BCL2 with linkers) (human); assay: imaging mass cytometry; peptide 2.50E-06 M in core (second core); Ab 5 ug/ml

Chain of BCL2 peptide Ac-…-amide (amino acids 41-54 of human BCL2 with linkers) (human) (peptide, as listed by the source): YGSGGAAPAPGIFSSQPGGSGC
Chain of UniProt P02769 (P02769 25-607 limits assumed): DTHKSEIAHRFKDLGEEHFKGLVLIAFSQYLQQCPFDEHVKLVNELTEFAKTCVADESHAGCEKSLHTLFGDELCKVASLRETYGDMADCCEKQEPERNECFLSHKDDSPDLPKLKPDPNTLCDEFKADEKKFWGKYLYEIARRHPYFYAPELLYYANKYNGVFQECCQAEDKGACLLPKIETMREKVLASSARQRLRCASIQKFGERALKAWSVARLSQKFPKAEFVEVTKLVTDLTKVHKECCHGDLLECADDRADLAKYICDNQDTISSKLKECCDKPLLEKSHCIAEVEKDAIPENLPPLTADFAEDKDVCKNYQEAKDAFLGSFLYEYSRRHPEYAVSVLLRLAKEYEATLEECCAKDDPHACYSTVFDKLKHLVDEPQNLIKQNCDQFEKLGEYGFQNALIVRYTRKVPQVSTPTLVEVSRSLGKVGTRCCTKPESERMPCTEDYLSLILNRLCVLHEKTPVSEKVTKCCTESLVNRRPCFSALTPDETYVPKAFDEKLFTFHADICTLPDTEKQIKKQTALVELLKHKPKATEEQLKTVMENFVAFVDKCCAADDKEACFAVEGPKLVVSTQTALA

**Q.** Fluidigm EPR17509-^146Nd antibody was tested. Which Integrated Ion counts (per 150 micron square ROI) [1] did it give?
**A.** The Integrated Ion counts (per 150 micron square ROI) was 39300 ion counts.

**Q.** And the Integrated Ion counts (per 150 micron square ROI) [2]?
**A.** Its Integrated Ion counts (per 150 micron square ROI) is 1080 ion counts.

**Q.** And the Integrated Ion counts (per 150 micron square ROI) [3]?
**A.** Its Integrated Ion counts (per 150 micron square ROI) is 1370 ion counts.

**Q.** And the Average Ion count [4]?
**A.** The Average Ion count was 6400 ion counts.

**Q.** What about the Ion count above background [4] of the same substance?
**A.** The Ion count above background was 522 ion counts.

**Q.** What about the Moles ^146Nd Ab detected per ROI [4] of the same substance?
**A.** The Moles ^146Nd Ab detected per ROI was 2.93e-18 mol.

**Q.** What about the ^146Nd Ab/peptide [4] of the same substance?
**A.** The ^146Nd Ab/peptide was 1.3%.

**Q.** And the Integrated Ion counts (per 150 micron square ROI) [5]?
**A.** The Integrated Ion counts (per 150 micron square ROI) was 48700 ion counts.

**Q.** What about the Integrated Ion counts (per 150 micron square ROI) [6] of the same substance?
**A.** Its Integrated Ion counts (per 150 micron square ROI) is 35300 ion counts.

**Q.** What about the Average Ion count [7] of the same substance?
**A.** The Average Ion count was 1310 ion counts.

**Q.** And the Ion count above background [7]?
**A.** Its Ion count above background is 134 ion counts.

**Q.** And the Moles ^146Nd Ab detected per ROI [7]?
**A.** Its Moles ^146Nd Ab detected per ROI is 7.5e-20 mol.

**Q.** What about the ^146Nd Ab/peptide [7] of the same substance?
**A.** The ^146Nd Ab/peptide was 3.33%.

**Q.** What about the Average Ion count [8] of the same substance?
**A.** Its Average Ion count is 32600 ion counts.

**Q.** And the Ion count above background [8]?
**A.** Its Ion count above background is 31500 ion counts.

**Q.** And the Moles ^146Nd Ab detected per ROI [8]?
**A.** The Moles ^146Nd Ab detected per ROI was 1.76e-17 mol.

**Q.** And the ^146Nd Ab/peptide [8]?
**A.** The ^146Nd Ab/peptide was 0.78%.

**Q.** And the Integrated Ion counts (per 150 micron square ROI) [9]?
**A.** Its Integrated Ion counts (per 150 micron square ROI) is 1310 ion counts.

**Q.** And the Integrated Ion counts (per 150 micron square ROI) [10]?
**A.** The Integrated Ion counts (per 150 micron square ROI) was 7700 ion counts.

**Q.** What about the Integrated Ion counts (per 150 micron square ROI) [11] of the same substance?
**A.** The Integrated Ion counts (per 150 micron square ROI) was 3900 ion counts.

From patent US20200292536A1
